# Assay results published in patent publication US20050196844A1.
# Biological target: taxol stabilized microtubules prepared from phosphocellulose purified tubulin
# Assay: co-sedimentation with taxol stabilized microtubules through a sucrose cushion, Western blot of pellet and supernatant
row,Substance,binding efficiency
1,"E. coli synthesized tau (352 residue isoform), non-phosphorylated (from UniProt P10636 2-758)",50%
2,E. coli synthesized tau (352 residue isoform) phosphorylated in vitro by fyn (from UniProt P10636 2-758),50%
